Data set [1] relates to transgenic Arabidopsis thaliana plant body (luciferase reporter gene). Nature of the data set: luciferase assay of promoter::LUC transgenic plants after environmental stress application. The format is in vivo. The conditions noted are these: for Tissue allowing specific induction: summary over stress types. The method, then:
Specifically, promoter regions were isolated from these genes, transgenic plants in which luciferase reporter genes were to be expressed under the control of such promoters were prepared, and tissue specificity of the promoters was inspected via luciferase assay.
In this example, DNA fragments containing promoter regions of the genes identified in Example 1 were recovered via PCR.
The nucleotide sequences of the amplified DNA fragments were determined in accordance with a conventional technique to confirm that mutagenesis, such as substitution or deletion, was not introduced thereinto. After the absence of mutagenesis was confirmed, the recovered DNA fragments were introduced into the vector for promoter analysis (i.e., a vector prepared by introducing the Gateway recombinant sequence (tradename: Gateway Vector Conversion System, Invitrogen) and the luciferase reporter gene into the pGreen vector (Plant Molecular Biology 42: 819-832, 2000)) using the Gateway recombination system to construct a recombinant vector.
The recombinant vector prepared in (1) above was introduced into a plant via Agrobacterium infection. When a gene is introduced via Agrobacterium infection, a process of infecting a plant with Agrobacterium containing a plasmid comprising the target gene construct is necessary. This process was carried out via vacuum infiltration. Specifically, a plant body of Arabidopsis thaliana that had been grown in soil comprising vermiculite and an equivalent amount of pearlite was soaked in a culture solution of Agrobacterium containing the recombinant vector prepared in (1). The resultant was placed in a desiccator, suctioned with a vacuum pump to 65 to 70 mmHg, and then allowed to stand at room temperature for 5 to 10 minutes. The pot was transferred onto a tray, covered with a wrap, and kept moistened. The wrap was removed on the following day, the plant was allowed to grow in that state, and seeds were then harvested.
Subsequently, seeds were sown on MS agar medium to which antibiotic hygromycin has been added in order to select an individual having the recombinant vector prepared in (1). Arabidopsis thaliana that had been grown in this medium was transferred to a pot and allowed to grow therein. Thus, seeds of transgenic plants to which the recombinant vector prepared in (1) has been introduced were obtained.
The seeds of the transgenic plant lineage prepared in (2) were sowed on MS agar medium. The plant body 10 days after sowing was used for luciferase assay.
At the outset, 1 mM luciferin (containing 0.01% Triton-X) was sprayed over the entire plant body 5 times. After the plant body was allowed to stand in the dark for 5 minutes, luciferase luminescence was assayed using ARGUS (assay after treatment for 0 hours). Subsequently, various types of environmental stresses were applied (see below). Low-temperature stress application was carried out by introducing a plate containing a plant body into a low-temperature chamber (4° C.). Dehydration stress application was carried out by capturing the plant body with forceps while refraining from damaging the plant body, roughly removing moisture from the plant body on a Kim Towel, placing the plant body on another plate, placing the plate in a clean bench while leaving the lid open, letting it stand for 2 hours, and then closing the lid. Salt stress application was carried out by dispensing a mixture of MS medium (containing 1% sucrose, 0.1% agar, and 1 mM luciferin) with 250 mM NaCl to the roots of the plant bodies (200 μl per plant body) using a Pipetman. ABA stress application was carried out by dispensing a mixture of MS medium (containing 1% sucrose, 0.1% agar, and 1 mM luciferin) with 100 μM ABA to the roots of the plant bodies (200 μl per plant body) using a Pipetman.
Luciferase luminescence was assayed 2, 5, and 10 hours after the above various types of environmental stresses had been applied using the ARGUS system (Hamamatsu Photonics). […]

Data set [2] deals with Arabidopsis thaliana (columbia ecotype) plant body. Kind of data set: full-length cDNA microarray analysis of gene expression levels after environmental stress application. The conditions noted are these: in vivo. The method, then: In this example, the gene expression levels at the time of application of various types of environmental stresses were analyzed using microarrays. Specifically, the microarrays described in Seki et al., “Monitoring the expression profiles of 7000 Arabidopsis genes under drought, cold, and high-salinity stresses using a full-length cDNA microarray,” Plant J. 31: 279-292, 2002, were used, and analysis was carried out in accordance with the method similar to the method described therein. Various types of environmental stresses were applied to a plant body under the following conditions. Specifically, low-temperature stress application was carried out by introducing a plate containing a plant body into a low-temperature chamber (4° C.). Dehydration stress application was carried out by capturing the plant body with forceps while refraining from damaging the plant body, roughly removing moisture from the plant body on a Kim Towel, placing the plant body on another plate, placing the plate in a clean bench while leaving the lid open, letting it stand for 2 hours, and then closing the lid. Salt stress application was carried out by dispensing a mixture of MS medium (containing 1% sucrose, 0.1% agar, and 1 mM luciferin) with 250 mM NaCl to the roots of the plant bodies (200 μl per plant body) using a Pipetman. ABA stress application was carried out by dispensing a mixture of MS medium (containing 1% sucrose, 0.1% agar, and 1 mM luciferin) with 100 μM ABA to the roots of the plant bodies (200 μl per plant body) using a Pipetman. As a plant body to which environmental stress is to be applied, Arabidopsis thaliana (columbia ecotype), which had been cultivated on a germination medium containing Murashige and Skoog Salt, 3% sucrose, and […] for 3 weeks, was used. Cultivation conditions were determined so as to maintain the temperature in the chamber at 22° C. with a 16-hour light period and an 8-hour dark period. Total RNA was extracted from plant bodies after environmental stress application or from plant bodies to which no environmental stress had been applied using the TRIZOL Reagent (Life Technologies), and mRNA was extracted using the mRNA isolation kit (Militenyi Biotec Auburn). In accordance with the method described in the above article, mRNA samples were reversely transcribed in the presence of Cy3 dUTP or Cy5 dUTP (Amersham Pharmacia). Microarray analysis was carried out using cDNAs obtained via reverse transcription. Data obtained via microarray analysis were analyzed using the Quantarray Version 2.0 (GSI Lumonics).

This is an account of results in patent US20090282582A1, “ENVIRONMENTAL STRESS RESPONSIVE PROMOTER AND METHOD OF TISSUE-SPECIFIC GENE EXPRESSION USING THE SAME” (RIKEN, priority 2006, published 2009).

Consider “Promoter of RAFL05-20-M16: environmental stress responsive promoter DNA, SEQ ID NO: 3, upstream of At2g46680 (ATHB7 transcription factor)”, for which the “Tissue in which specific induction of expression is realized” value (shortened to “Tissue in which specific induction”) in data set [1] (ABA stress (100 μM ABA)) was “Root tissue”; in data set [1] (ABA stress (100 μM ABA), listed as promoter of RAFL05-20-M16) it was “root tissue”; in data set [1] (Dehydration stress), “Root tissue”; in data set [1] (Dehydration stress, listed as promoter of RAFL05-20-M16) it was “root tissue”. The “time after stress application at which activity to induce gene expression is exhibited” value in data set [1] (ABA stress, root tissue) is given as “about 2 hours”; in data set [1] (Dehydration stress) it was “about 10 hours”. Further, the “Tissue allowing specific induction” value in data set [1] is “Stem and leaf tissue and root tissue”. For the same molecule, the “Environmental stress type to which the promoter responds” value in data set [2] was “Dehydration and salt”.

B1: Promoter of RAFL05-17-B13: environmental stress responsive promoter DNA, SEQ ID NO: 1, upstream of At1g01470 (LEA protein) (nucleic acid, listed as Arabidopsis thaliana)
DNA: CCGCCAACTACCAACACCGACATATGTGCTTTCGGCAGTTTTGATATCATTCCAAAATTTCAATTATTATTTATCAAATTTATTTTCTTGGTAAAAGTTTAATTAATTTCAATTATTTGAATGTCTTAATTCACTGATTACAAATTATATATGTAATATATACATAACAATTTCGTTCGTGGAGTGTTATTATACTCCTTAAGCGAATCTGTATATTTTAAATAAAATTTTGATTTATGCACACGTACATGTTCAATTGAAACGTTTTCCCTAACTATAGATGCCAATAAATAATAAGTTGATTTTTAAAATGTACAAAACAAAAGGTACCGTTTTGTAAAATTTTGCAACCAAAAAGTACAATCGGCCGTTGAAAATCGTGGAACCAAACACTAATTAAAGAGAAGTGTGAATATAATCTAGTGTTTGCGGATTTATATTATAAAATTTGTGTATCACTAAAATGTCAAAGCATGCTTTGACTGGTCAATAAGTCAAATTAACTAACAAACCATGCGAGGCGTAGGTTTGACTTCTTAACATAAATGCTGACTCAGTTTTTCCATTCCGCAGCTGTCGACTAATTGGACACGCTTCTTCCAATCCCTTTCCACTAATCATCCATCAACACGTGACATGCCTACAGTGCACGACTTCACAGTGATCATGTCAAAGTTTTGTTTTTAAGAGAAGAAGATTCACGACTTCACAGTGATCATAGTCCAGTTACAAATTTGAATGGGCTTATGGCCTGTGGCCCATTTAAGTTTGACCTTAATATCCATCAGAAACCCATACCAATACGGGTCATAAGTGCATTGTCCATATAGTGTACCGCAATGCATGGGAGTACTACTACATTCCACCGACGTGCATATGGGGGGACATGGTCGGTCCATTAATCCCTTGCGCATCTTATTCCTTACGCGAATACTTTTCCCTCTTTTAGTTTTGTATAATACTTTCCATTTTTTTGGTATTAAATTTATCGTGTGACTATCTAAAAAGGTATTTAATTATCTAGTTTAGCTATAACTGCAAACAAAATATCTATTTTCATGAATGATATATTTTTGAAATAAAATATTGTTGTCATGTAACGAAAAAATCAAAAATCAAGCAGAAGACACGTATAACCCACGCTTTCACTCTCACTCGTGGAAAACCCTCACACGTACACAAACCATTATAAAATTTAATCCATTTACATCGACCGACTTCATAAGAACATCGTAATCCCATCCGTTTATATATATATTCCAAGTTAAACTTCATATCATACACACAAACCTAAAACACCGAAACAAAAACAAAGAGATTTAAACAAGAAGAGTTATT
For B1, the “Tissue in which specific induction” value in data set [1] (ABA stress (100 μM ABA)) is “Stem and leaf tissue (weak)”; in data set [1] (ABA stress (100 μM ABA), listed as promoter of RAFL05-17-B13) it was “weak gene expression in stem and leaf tissue”; in data set [1] (Dehydration stress), “Stem and leaf tissue and root tissue”; in data set [1] (Dehydration stress, listed as promoter of RAFL05-17-B13) it was “stem and leaf tissue and root tissue”; in data set [1] (Low temperature stress (4° C.)), “Stem and leaf tissue”; in data set [1] (Low temperature stress (4° C.), listed as promoter of RAFL05-17-B13) it was “stem and leaf tissue”. Besides, the “Tissue in which specific induction” value in data set [1] (Salt stress (250 mM NaCl)) was “Stem and leaf tissue”; in data set [1] (Salt stress (250 mM NaCl), listed as promoter of RAFL05-17-B13) it was “stem and leaf tissue”. Also, in data set [1], the “Tissue allowing specific induction” value was “Stem and leaf tissue and root tissue”. Also, in data set [2], the “Environmental stress type to which the promoter responds” value was “Dehydration and salt”.
